From US20180030151A1 (MOGAM INSTITUTE FOR BIOMEDICAL RESEARCH, published 2018)
Positions count from the first letter of the chain named. Where two headings read alike, the source gives them in different places. Blank lines part the entries; values can stand above or below the binder they belong to.

Legend:
Assay in all cases: cell-based or functional assay
[1] = target: T1, recombinant human TFPI (tissue factor pathway inhibitor) (human, UniProt P10646 29-304)
[2] = target: T1, recombinant human TFPI (tissue factor …); remark: listed apart in the source
[3] = target: T1, recombinant human TFPI (tissue factor …); remark: listed apart in the source
[4] = target: T1, recombinant human TFPI (tissue factor …); remark: listed apart in the source
[5] = target: T1, recombinant human TFPI (tissue factor …); remark: listed apart in the source
[6] = target: T1, recombinant human TFPI (tissue factor …); remark: listed apart in the source
[7] = target: T1, recombinant human TFPI (tissue factor …); remark: listed apart in the source
[8] = target: T1, recombinant human TFPI (tissue factor …); remark: listed apart in the source
[9] = target: T1, recombinant human TFPI (tissue factor …); remark: listed apart in the source
[10] = target: T1, recombinant human TFPI (tissue factor …); remark: listed apart in the source
[11] = target: T1, recombinant human TFPI (tissue factor …); remark: listed apart in the source
[12] = target: T1, recombinant human TFPI (tissue factor …); remark: listed apart in the source
[13] = target: T1, recombinant human TFPI (tissue factor …); remark: listed apart in the source
[14] = target: T1, recombinant human TFPI (tissue factor …); remark: listed apart in the source

- % of Normalized, TF/FVIIa/FX complex assay (FX 5 nM), Ab 1.56 nM [1]: 5.5%
- % of Normalized, TF/FVIIa/FX complex assay (FX 5 nM), Ab 3.13 nM [1]: 5.6%
- % of Normalized, TF/FVIIa/FX complex assay (FX 5 nM), Ab 6.25 nM [1]: 6.4%
- % of Normalized, TF/FVIIa/FX complex assay (FX 5 nM), Ab 12.5 nM [1]: 10.3%
- % of Normalized, TF/FVIIa/FX complex assay (FX 5 nM), Ab 25 nM [1]: 51.4%
- % of Normalized, TF/FVIIa/FX complex assay (FX 5 nM), Ab 50 nM [1]: 90.9%
- % of Normalized, TF/FVIIa/FX complex assay (FX 5 nM), Ab 100 nM [1]: 103%
- FXa assay % of FXa alone, 2.5 nM Ab, 10 nM TFPI [2]: 7.3%
- FXa assay % of FXa alone, 5 nM Ab, 10 nM TFPI [2]: 32.8%
- FXa assay % of FXa alone, 10 nM Ab, 10 nM TFPI [2]: 76.5%
- FXa assay % of FXa alone, 20 nM Ab, 10 nM TFPI [2]: 87.2%
- FXa assay OD, 2.5 nM Ab, 10 nM TFPI [2]: 0.0605
- FXa assay OD, 5 nM Ab, 10 nM TFPI [2]: 0.271
- FXa assay OD, 10 nM Ab, 10 nM TFPI [2]: 0.632
- FXa assay OD, 20 nM Ab, 10 nM TFPI [2]: 0.721
- A405, TF/FVIIa/FX complex assay (FX 5 nM), Ab 1.56 nM [3]: 0.045
- A405, TF/FVIIa/FX complex assay (FX 5 nM), Ab 3.13 nM [3]: 0.045
- A405, TF/FVIIa/FX complex assay (FX 5 nM), Ab 6.25 nM [3]: 0.052
- A405, TF/FVIIa/FX complex assay (FX 5 nM), Ab 12.5 nM [3]: 0.083
- A405, TF/FVIIa/FX complex assay (FX 5 nM), Ab 25 nM [3]: 0.416
- A405, TF/FVIIa/FX complex assay (FX 5 nM), Ab 50 nM [3]: 0.735
- A405, TF/FVIIa/FX complex assay (FX 5 nM), Ab 100 nM [3]: 0.835
- FXa assay % of FXa alone, 2.5 nM Ab, 10 nM TFPI [4]: 8.2%
- FXa assay % of FXa alone, 5 nM Ab, 10 nM TFPI [4]: 45.3%
- FXa assay OD, 2.5 nM Ab, 10 nM TFPI [4]: 0.0625
- FXa assay OD, 5 nM Ab, 10 nM TFPI [4]: 0.345
- FXa assay OD, 10 nM Ab, 10 nM TFPI [4]: 0.602
- FXa assay OD, 20 nM Ab, 10 nM TFPI [4]: 0.58
- effect of inhibiting TFPI, FXa activity assay, Ab 10 nM [5]: ~79%
- effect of inhibiting TFPI, FXa activity assay, Ab 20 nM [5]: ~76%
B1: clone 2 (antibody, V domains shown)
VH: EVQLVESGGGLVKPGGSLRLSCAASGFTFSSYAMNWVRQAPGKGLEWVSTITTGGSYTYYADSVEGRFTISRDNAKNSLYLQMNSLRAEDTAVYYCARQDGNFLMDYWGQGTLVTVSS
VL: DVVMTQTPLSLPVTLGQPASISCKSSPSLLDIDGKTYLNWLQQRPGQSPKRLIYLVSKLDSGVPDRFTGSGSGTDFTLKISRVEAEDVGVYYCWQGTHFPFTFGQGTKVEIKR

- FXa assay % of FXa alone, 2.5 nM Ab, 10 nM TFPI [6]: 9.2%
- FXa assay % of FXa alone, 5 nM Ab, 10 nM TFPI [6]: 41.9%
- FXa assay OD, 2.5 nM Ab, 10 nM TFPI [6]: 0.0745
- FXa assay OD, 5 nM Ab, 10 nM TFPI [6]: 0.338
- FXa assay OD, 10 nM Ab, 10 nM TFPI [6]: 0.543
- FXa assay OD, 20 nM Ab, 10 nM TFPI [6]: 0.637
- A405, TF/FVIIa/FX complex assay, Ab 1.56 nM [7]: 0.154
- A405, TF/FVIIa/FX complex assay, Ab 3.13 nM [7]: 0.177
- A405, TF/FVIIa/FX complex assay, Ab 6.25 nM [7]: 0.196
- A405, TF/FVIIa/FX complex assay, Ab 12.5 nM [7]: 0.29
- A405, TF/FVIIa/FX complex assay, Ab 25 nM [7]: 0.914
- A405, TF/FVIIa/FX complex assay, Ab 50 nM [7]: 0.895
- A405, TF/FVIIa/FX complex assay, Ab 100 nM [7]: 0.907
- FXa assay % of FXa alone, 2.5 nM Ab, 10 nM TFPI [8]: 8%
- FXa assay % of FXa alone, 5 nM Ab, 10 nM TFPI [8]: 28.8%
- FXa assay % of FXa alone, 10 nM Ab, 10 nM TFPI [8]: 63.5%
- FXa assay % of FXa alone, 20 nM Ab, 10 nM TFPI [8]: 75.8%
- FXa assay OD, 2.5 nM Ab, 10 nM TFPI [8]: 0.065
- FXa assay OD, 5 nM Ab, 10 nM TFPI [8]: 0.234
- FXa assay OD, 10 nM Ab, 10 nM TFPI [8]: 0.516
- FXa assay OD, 20 nM Ab, 10 nM TFPI [8]: 0.616
- % of Normalized, TF/FVIIa/FX complex assay, Ab 1.56 nM [9]: 16.1%
- % of Normalized, TF/FVIIa/FX complex assay, Ab 3.13 nM [9]: 18.5%
- % of Normalized, TF/FVIIa/FX complex assay, Ab 6.25 nM [9]: 20.5%
- % of Normalized, TF/FVIIa/FX complex assay, Ab 12.5 nM [9]: 30.3%
- % of Normalized, TF/FVIIa/FX complex assay, Ab 25 nM [9]: 95.8%
- % of Normalized, TF/FVIIa/FX complex assay, Ab 50 nM [9]: 93.7%
- % of Normalized, TF/FVIIa/FX complex assay, Ab 100 nM [9]: 95%
- effect of inhibiting TFPI, FXa activity assay, Ab 10 nM [5]: ~67%
- effect of inhibiting TFPI, FXa activity assay, Ab 20 nM [5]: ~79%
- A405, TF/FVIIa/FX complex assay, Ab 1.56 nM [10]: 0.149
- A405, TF/FVIIa/FX complex assay, Ab 3.13 nM [10]: 0.172
- A405, TF/FVIIa/FX complex assay, Ab 6.25 nM [10]: 0.195
- A405, TF/FVIIa/FX complex assay, Ab 12.5 nM [10]: 0.33
- A405, TF/FVIIa/FX complex assay, Ab 25 nM [10]: 0.908
- A405, TF/FVIIa/FX complex assay, Ab 50 nM [10]: 0.938
- A405, TF/FVIIa/FX complex assay, Ab 100 nM [10]: 0.947
- % of Normalized, TF/FVIIa/FX complex assay, Ab 1.56 nM [11]: 16.3%
- % of Normalized, TF/FVIIa/FX complex assay, Ab 3.13 nM [11]: 18.7%
- % of Normalized, TF/FVIIa/FX complex assay, Ab 6.25 nM [11]: 21.3%
- % of Normalized, TF/FVIIa/FX complex assay, Ab 12.5 nM [11]: 36.1%
- % of Normalized, TF/FVIIa/FX complex assay, Ab 25 nM [11]: 99.2%
- % of Normalized, TF/FVIIa/FX complex assay, Ab 50 nM [11]: 102%
- % of Normalized, TF/FVIIa/FX complex assay, Ab 100 nM [11]: 104%
B2: clone A67 (antibody, V domains shown)
VH: B1 VH
VL: B1 VL with P27Q, I32L

- FXa assay % of FXa alone, 2.5 nM Ab, 10 nM TFPI [12]: 6.5%
- FXa assay % of FXa alone, 5 nM Ab, 10 nM TFPI [12]: 14%
- FXa assay OD, 2.5 nM Ab, 10 nM TFPI [12]: 0.0465
- FXa assay OD, 5 nM Ab, 10 nM TFPI [12]: 0.101
- FXa assay OD, 10 nM Ab, 10 nM TFPI [12]: 0.512
- FXa assay OD, 20 nM Ab, 10 nM TFPI [12]: 0.594
- % of Normalized, TF/FVIIa/FX complex assay, Ab 1.56 nM [13]: 15.4%
- % of Normalized, TF/FVIIa/FX complex assay, Ab 3.13 nM [13]: 16.1%
- % of Normalized, TF/FVIIa/FX complex assay, Ab 6.25 nM [13]: 17.2%
- % of Normalized, TF/FVIIa/FX complex assay, Ab 12.5 nM [13]: 19.4%
- % of Normalized, TF/FVIIa/FX complex assay, Ab 25 nM [13]: 29.3%
- % of Normalized, TF/FVIIa/FX complex assay, Ab 50 nM [13]: 100%
- % of Normalized, TF/FVIIa/FX complex assay, Ab 100 nM [13]: 103%
- effect of inhibiting TFPI, FXa activity assay, Ab 10 nM [5]: ~71%
- effect of inhibiting TFPI, FXa activity assay, Ab 20 nM [5]: ~83%
- A405, TF/FVIIa/FX complex assay, Ab 1.56 nM [14]: 0.141
- A405, TF/FVIIa/FX complex assay, Ab 3.13 nM [14]: 0.148
- A405, TF/FVIIa/FX complex assay, Ab 6.25 nM [14]: 0.158
- A405, TF/FVIIa/FX complex assay, Ab 12.5 nM [14]: 0.179
- A405, TF/FVIIa/FX complex assay, Ab 25 nM [14]: 0.269
- A405, TF/FVIIa/FX complex assay, Ab 50 nM [14]: 0.919
- A405, TF/FVIIa/FX complex assay, Ab 100 nM [14]: 0.944
B3: clone 1015 (antibody, V domains shown)
VH: B1 VH with Y57H
VL: B1 VL with P27Q
